The text below walks through data of publication PMC12084297, “Cytoplasmic connexin43-microtubule interactions promote glioblastoma stem-like cell maintenance and tumorigenicity” (Cell Death & Disease, 2025).

Test [1] concerns the target α-tubulin (human (endogenous in VTC-037 GSCs)) (UniProt P68363). Briefly: cellular thermal shift assay (CETSA); fresh VTC-037 GSC lysates in non-denaturing buffer treated 1 h with 3-fold dilutions (222.2, 74.0, 24.7, 8.2 and 2.7 nM) of peptide, heat challenge at 57 °C for 20 min, centrifugation, immunoblot of the stable protein normalised to DMSO control; EC50 of target engagement. (In general: Immunoblotting shows a protein as a band on a membrane.)

The target in test [2] is β-tubulin (human (endogenous in VTC-001 and VTC-037 GSCs)) (UniProt P07437). The test is described as above.
Chain of β-tubulin (human (endogenous in VTC-001 and VTC-037 GSCs)) (P07437 whole entry): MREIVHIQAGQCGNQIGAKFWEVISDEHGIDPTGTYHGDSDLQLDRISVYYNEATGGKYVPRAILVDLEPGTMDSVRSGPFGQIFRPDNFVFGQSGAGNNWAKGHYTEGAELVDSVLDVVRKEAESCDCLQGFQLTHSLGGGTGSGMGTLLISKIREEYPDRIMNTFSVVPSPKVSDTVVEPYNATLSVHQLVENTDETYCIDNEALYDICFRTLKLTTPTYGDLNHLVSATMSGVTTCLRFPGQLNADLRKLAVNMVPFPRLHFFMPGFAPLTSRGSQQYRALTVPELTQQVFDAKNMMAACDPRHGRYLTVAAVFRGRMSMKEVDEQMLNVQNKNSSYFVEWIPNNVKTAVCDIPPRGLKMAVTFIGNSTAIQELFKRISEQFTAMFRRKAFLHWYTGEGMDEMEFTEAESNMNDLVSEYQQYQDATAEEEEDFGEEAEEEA

Chain of α-tubulin (human (endogenous in VTC-037 GSCs)) (P68363 whole entry): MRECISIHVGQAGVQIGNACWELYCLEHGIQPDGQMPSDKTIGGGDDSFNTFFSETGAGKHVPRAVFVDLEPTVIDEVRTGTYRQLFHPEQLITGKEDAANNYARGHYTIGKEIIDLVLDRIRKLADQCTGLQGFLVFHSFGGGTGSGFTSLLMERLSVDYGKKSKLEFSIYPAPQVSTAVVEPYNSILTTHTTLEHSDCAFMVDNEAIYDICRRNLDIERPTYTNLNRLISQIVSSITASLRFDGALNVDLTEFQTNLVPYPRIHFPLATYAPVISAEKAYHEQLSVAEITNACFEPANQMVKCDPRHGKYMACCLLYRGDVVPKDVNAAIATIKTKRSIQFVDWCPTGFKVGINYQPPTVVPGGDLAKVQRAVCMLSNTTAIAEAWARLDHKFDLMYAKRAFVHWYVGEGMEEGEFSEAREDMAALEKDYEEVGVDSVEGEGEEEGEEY

The term EC50 denotes the concentration at which the effect is half-maximal. As to JM2 (juxtamembrane 2) peptide, the EC50 in test [1] turned out to be 8.4 nM; in test [2] it was 7.9 nM.
